The nanobody polyreactivity screen of Harvey et al. (2022)

Test: yeast display, Sf9 membrane polyspecificity reagent, FACS + sequencing; frameworks hold sequencing errors
In short: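 Genes from sorted yeast were amplified by colony PCR, read by MiSeq 2 × 250 sequencing and filtered on CDR length. These cells carried a synthetic nanobody library in Saccharomyces cerevisiae BJ5465 and were sorted by FACS into low and high (top ~1%) gates on anti-HA and streptavidin fluorescence. Polyreactivity is labelled according to the gate of origin.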

Sequence	polyreactivity (PSR sort gate)
QVQLVESGGGLVQAGGSLRLSCAASGGIFIGYAMGWYRQAPGKERELVARIRSSGGTTYYADSVKGRFTISRDNAKNTVYLQMNSLKPEDTAVYYCAKRTSSSWAYGPYYYWGQGTQVTVSS	high polyreactivity
QVQLVESGGGLVQAGGSLRLSCAASGGIFIYNAMGWYRQAPGKEREFVAAINISGGNTYYADSVKGRFTISRDNAKNTVYLQMNSLKPEDTAVYYCAKSGRYGFWGQGTQVTVSS	high polyreactivity
QVQLVESGGGLVQAGGSLRLSCAASGGIFKRYAMGWYRQEPGKERELVAAISGRGGGTYYADSVKGRFTISRDNAKNTDYLQMNSLKPEDTAVYYCNARLSWSAFGYWGQGTQVTVSS	high polyreactivity
QVQLVESGGGLVQAGGSLRLSCAASGGIFKYYAMGWYRLAPGKERELVAAITSGGNTNYADSVKGRFTISRDNAKNTVYLQMNSLKPEDTAVYYCAARSISRRTWQYNYWGQGTQVTVSS	high polyreactivity
QVQLVESGGGLVQAGGSLRLSCAASGGIFLFNAMGWYRQAPGKERELVAAITDGGSTYYADSVKGRFTISRDNAKNTVYLQMNSLIPDDTAVYYCNKDSSFWGYYIAQVNERDYWGQGTQVTVSS	low polyreactivity
QVQLVESGGGLVQAGGSLRLSCAASGGIFLSNAMGWYRQAPGKERELVAAISRSGGSTYYADSVKGRFTISRDNAKNTVYLQMNSLKPEDTAVYYCAARWTRNYGMNYWGQGTQVTVSS	high polyreactivity
QVQLVESGGGLVQAGGSLRLSCAASGGIFNYYAMGWYRQAPGKERELVAAMTSAGSTYADSVKGRFTISRDNATNTVSLQMNILKPEDTAVYYCNAVGVVVKFGYYLIGYAKWYDYWGQGSQVTVSS	low polyreactivity
QVQLVESGGGLVQAGGSLRLSCAASGGIFNYYVMGWYRQAPGIERELVAAISNGGSPNYADSVKGRFTISRDNAKNPVYLQMNSLKPEDTAVYYCAAHTYSELSWLVVYPYDYWGQGTQVTVSS	low polyreactivity
QVQLVESGGGLVQAGGSLRLSCAASGGIFPFYAMGWDRQAPGKERELVAVITSSGGSTFYSDSVKGRFTISRDNAKNTVYLQMNSLKPEDTAVYYGNARRVSREIWYGATGNDYWGQGTQGTVSS	low polyreactivity
QVQLVESGGGLVQAGGSLRLSCAASGGIFPFYAMGWYRQAPGKERELVAAISGIGDSTYYADSVKGRFTISRDNAKNTVYLQMNSLKPEDTAVYYCAREFSDGLSGKFDYWGQGTQVTVSS	low polyreactivity
QVQLVESGGGLVQAGGSLRLSCAASGGIFPTYVMGWYRQAPGKERELVAAIDRNGTSTTYADSVKGRFTISRDYAKNTVYLQMNSLKPEDTAVYYCAAGYNDQTSAYDYWGQGTQVTVSS	low polyreactivity
QVQLVESGGGLVQAGGSLRLSCAASGGIFRFNAMAWYRQAPGKERELVAAINRGGSTDYADSVKGRFTSSRDNAKNTVYLQMNSLKPEDTAVYYCAADYEYRPKTRDGYYWGQGTQVTVSS	low polyreactivity
QVQLVESGGGLVQAGGSLRLSCAASGGIFRGYAMGWYRQAPGKERELVATSRSSGRTNYADSVKGRFTISRDNAKNTVYLQMNSLKPEDTAVYFCNKRRWWQYDSWGDWVLGGDDYWGQGTQVTVSS	low polyreactivity
QVQLVESGGGLVQAGGSLRLSCAASGGIFRIYAMGGYRQAPGKERELVAAISRSGGTTYYADSVKGRFTISRDNAKNTVDLQMNSLKPEDTAVYYCNARYYQSRHVNDVPNYYWGHGTQVTVSS	high polyreactivity
QVQLVESGGGLVQAGGSLRLSCAASGGIFRIYAMGWYRQAPGKERELVASISRSGGRTYYADSVKGRFTISRDNAKNTVYLQMNSLKPEDTAVYYCAVSLQGYNQVDYYYWGQGTQVTVSS	high polyreactivity
QVQLVESGGGLVQAGGSLRLSCAASGGIFRVYAMGWYRQAPGKERELVAAISRSGSSTYYADSVKGRFTISRDNAKNTVYLQMTSLKPEDTAVYYCNAYSQYWLGNNYWGQGTQVTLSS	high polyreactivity
QVQLVESGGGLVQAGGSLRLSCAASGGIFRYSAMGWYRQAPGKERELVATDGDTYYADSVKGRFTISRDNAKNTVYLQLNSLKPEDTAVYYCAAEPVRYYAMEYWGQGTQVTVSS	low polyreactivity
QVQLVESGGGLVQAGGSLRLSCAASGGIFRYYAMGWYRQAPGKERELVAAISRSGDSTYYADSVKGRFTISRDNAKNTVYLQMNSLKPEDTAVYYCAATRLYWKIFYGDGDYWGQGTQVTVSS	high polyreactivity
QVQLVESGGGLVQAGGSLRLSCAASGGIFSPNAMGWYRQAPGKERELVAGITFSGGSTYYADSVKGRFTISRDNAKTTVYLQMNSLKPEDTAVYYCNARVPPQGWGPWKAFDYWGQGTQVTVSS	low polyreactivity
QVQLVESGGGLVQAGGSLRLSCAASGGIFSRNAMGWSRQAPGKERELVAAISSGGSTYYADSVKGRFTISRDNAKNTVYLQMNTLKPEDTAVYYCAAKRSGQRTLLGYWGQGTQVTVSS	high polyreactivity

Sequence	polyreactivity (PSR sort gate)
QVQLVESGGGLVQAGGSLRLSCAASGGIFSYAMGWYRQAPGKERELVADINSDGSTTYADSVKGRFTISRDNAKNTVYLQMNSLKPEDTAVYYCAVDVSVNWPLLERYEYWGQGTQVTVSS	low polyreactivity
QVQLVESGGGLVQAGGSLRLSCAASGGIFSYYAMGWYRQAPGKEREFVAAIDWGGGSTYYADSVKGRFTISRDNAKNTVYLQMNSLKPEDTAVYYCAAEIYPIGWDDYDYWGQGTQVTVSS	low polyreactivity
QVQLVESGGGLVQAGGSLRLSCAASGGIFTDYTMGWYRQAPGKERELVAAITWTGGSTYYADSVKGRFTISRDNAKNSVYLQMNSLKPEDTAVYYCAADEYWVNLDYWGQGTQVTVSS	low polyreactivity
QVQLVESGGGLVQAGGSLRLSCAASGGIFTGNAMGWYRQAPGKERELVAAINRRTGSTYYADSVKGRFTISRDNAKNTVYLQMNSLKPEDTAVYYCATRRYRSYTYDYWGQGTQVTVSS	high polyreactivity
QVQLVESGGGLVQAGGSLRLSCAASGGIFTKNAMGWYRQAPGKERELVAGISRTGGNTYYADSVKGRFTISRDNAKNTVYLQMNSLKPEDSAVYYCAAGRYYAVWQSISGFDSWGQGTQVTVSS	low polyreactivity
QVQLVESGGGLVQAGGSLRLSCAASGGIFTKNAMGWYRQAPGKERELVAGISRTGGNTYYADSVKGRFTISRDNAKNTVYLQMNSLKPEDTAVYYCHWAKWYRYGGYRSRYDYWGQGTQVTVSS	low polyreactivity
QVQLVESGGGLVQAGGSLRLSCAASGGIFTLYVMGWYRQAPGKERELVAAISRTGGSTYYADSVKGRFTISRDNAKNTVYLQMNSLKPEDTAVYFCAALYRGGTRYGGYDYWGQGTQVTVSS	high polyreactivity
QVQLVESGGGLVQAGGSLRLSCAASGGIFTPYAMGWYRQAPGKERELVAAISRSGGSTYYADSVKGRFTISRDNAKNTVYLQMNSLKPEDTAVYYCNALFRALKAFSQYNYWGQGTQVTVSS	high polyreactivity
QVQLVESGGGLVQAGGSLRLSCAASGGIFTQYAMGWSRQAPWKERELVAAITRSGGTYYADSVKGRFTISRDNAKNTVYLQMNSLKPEDTAVYYCAAEWIDAYYDYDYWGQGTQVTVSS	high polyreactivity
QVQLVESGGGLVQAGGSLRLSCAASGGIFVSYAMGWSRQAPGKERELVARINTVDGTNYADSVKGRFTISRDNAKNTVYLQMNSLKPEDTAVYYCAVRSPVLASDYGYYFLRDYWGQGTQVTVSS	low polyreactivity
QVQLVESGGGLVQAGGSLRLSCAASGGIFWFYAMGWYRQAPGKERELVASIRSSDGGTYYADSVKGRFTISRDNAKNTVYLQMNSLKPEDTAVYYCAADQTYERHWVYYWGQGTQVTVSS	low polyreactivity
QVQLVESGGGLVQAGGSLRLSCAASGGIFWYNAMGWYRQAPGKERELVAAITWNGGRTYYADSVKGRFTISRDNAKNTVYLQMNSLKPEDTAVYYCAARSPVKRQSRKQYYYWGQGTQVTVSS	high polyreactivity
QVQLVESGGGLVQAGGSLRLSCAASGGIFYDYAMGWYRQAPGKERELVAAITRSGDSTYYADSVKGRFTISRDNPKNTVYLQMNSLKPEDTAVYYCAADIWSSDYEEFYYWGQGTQVTVSS	low polyreactivity
QVQLVESGGGLVQAGGSLRLSCAASGGIFYFYAMGWSRQAPGKERELVAAISSNGGRTYYADSVKGRFTISRDNAKNTVYLQMNSLKPEDTAVYYCNAVSRVSDRHLATYDYWGQGTQVTVSS	high polyreactivity
QVQLVESGGGLVQAGGSLRLSCAASGGIFYLNAMGWYREAPGKERELVAAISSGVSTYYADSVKGRFTISRDNAKNTVYLQMNSLKPEDTAVYYCNADYNYPAWVGSWWDYDYWGQGTQVTVSS	low polyreactivity
QVQLVESGGGLVQAGGSLRLSCAASGGIFYLYAMGWYRQAPGKERELVAAITWSADSTYYADSVKGRFTISRDNAKYTVYLQMNSLKPEDTAVYYCNADVAWQYWNGWSWDIYDYWGQGTQVTVSS	low polyreactivity
QVQLVESGGGLVQAGGSLRLSCAASGGIFYTNAMGWYRQAPGKERELVAAIRKNGDSTNYADSVKGRFTISRDNAKYTVYLHMNSLKPEDTAVYYCNDELWPWAYDYWGQGTQVTVSS	low polyreactivity
QVQLVESGGGLVQAGGSLRLSCAASGGIIAINAMGWYRQAPGKERELVAAISWGDGITYYADSVKGRFTISRDNAKNTVDLQMNSLKPEDTAVYYCNARLLSGPGYDYWGQGTQVTVSS	low polyreactivity
QVQLVESGGGLVQAGGSLRLSCAASGGIIGWYAMGWYRQAPGKERELVAAINWSGADTYYADSVKGRFTISRDNAKNTVYLQMNSLKPEDTAVYYCAADGHKYRMDYWGQGTQVTVSS	low polyreactivity
QVQLVESGGGLVQAGGSLRLSCAASGGIKRPYAMGWSRQAPRKERELVAAISYSGGSTYYADSVKGRFTISRDTAKISVYLLMNSLKTEDTAVYYCIAYRQCSNVLTTYEYWGKGTQVTVSS	high polyreactivity
